Response (Response unit), Kd and stoichiometry N data for four molecules are collected here from publication PMC4437028 (2015).

Experiment [1] deals with mouse Slitrk2 LRR1 (first leucine-rich repeat of Slit and Trk-like family member 2), wild type (UniProt Q810C0). In words: SPR equilibrium analysis. To be noted: point at 4 µM PTPδ Ig1-Fn1 (highest concentration); Slitrk2 LRR1 immobilized on a CM5 sensor tip; parent: est. 600; read off a plot.
The target in experiment [2] is T1, mouse Slitrk2 LRR1 (first leucine-rich repeat of Slit and Trk-like family member 2), wild type, Q810C0.
T1 chain: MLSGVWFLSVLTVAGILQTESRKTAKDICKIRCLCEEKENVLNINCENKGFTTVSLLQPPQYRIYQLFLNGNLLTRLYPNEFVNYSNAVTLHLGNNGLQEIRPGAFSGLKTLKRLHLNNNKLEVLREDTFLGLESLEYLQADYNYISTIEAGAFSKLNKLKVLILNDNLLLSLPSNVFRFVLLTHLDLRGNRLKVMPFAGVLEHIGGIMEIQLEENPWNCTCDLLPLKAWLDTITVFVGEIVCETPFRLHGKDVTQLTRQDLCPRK
In words: SPR equilibrium analysis. To be noted: chain shown with the change, Slitrk2 LRR1 immobilized on a CM5 sensor tip.

For experiment [3], the target named is T2, mouse Slitrk2 LRR1 (first leucine-rich repeat of Slit and Trk-like family member 2), wild type (mouse, UniProt Q810C0 1-266, N-linked glycans).
T2 chain: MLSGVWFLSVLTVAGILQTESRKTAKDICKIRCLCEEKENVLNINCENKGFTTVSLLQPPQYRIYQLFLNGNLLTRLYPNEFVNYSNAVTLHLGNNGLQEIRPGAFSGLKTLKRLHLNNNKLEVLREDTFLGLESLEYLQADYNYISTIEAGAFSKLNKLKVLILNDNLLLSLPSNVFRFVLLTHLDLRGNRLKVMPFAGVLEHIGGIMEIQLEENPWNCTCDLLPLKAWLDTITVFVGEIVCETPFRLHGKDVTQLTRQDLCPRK
In words: SPR. (SPR reads the build-up and loss of mass on a sensor chip optically.)

The next experiment deals with T3, mouse Slitrk2 LRR1 R114A (mouse, UniProt Q810C0 1-266, R114A).
T3 sequence: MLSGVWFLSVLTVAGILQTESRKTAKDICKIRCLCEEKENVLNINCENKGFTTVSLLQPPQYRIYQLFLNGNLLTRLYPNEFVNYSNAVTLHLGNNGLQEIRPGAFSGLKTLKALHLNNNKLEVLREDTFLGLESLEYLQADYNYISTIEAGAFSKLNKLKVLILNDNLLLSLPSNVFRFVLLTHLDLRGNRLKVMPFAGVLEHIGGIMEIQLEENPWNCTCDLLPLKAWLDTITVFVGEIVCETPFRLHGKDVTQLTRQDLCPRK
As to the kind of experiment: SPR.

The target in experiment [4] is T4, mouse Slitrk2 LRR1 F247A H250A (mouse, UniProt Q810C0 1-266, F247A | H250A).
T4 sequence: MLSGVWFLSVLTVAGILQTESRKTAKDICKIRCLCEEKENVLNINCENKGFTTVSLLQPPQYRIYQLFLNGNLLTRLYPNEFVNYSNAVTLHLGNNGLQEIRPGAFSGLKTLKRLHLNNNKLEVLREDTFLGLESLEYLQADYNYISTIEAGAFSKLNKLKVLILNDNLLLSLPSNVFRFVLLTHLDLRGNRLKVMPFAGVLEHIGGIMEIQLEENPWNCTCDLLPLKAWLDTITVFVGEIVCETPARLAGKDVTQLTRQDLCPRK
As to the kind of experiment: SPR.

Experiment [5] concerns the target mouse Slitrk2 LRR1 (first leucine-rich repeat of Slit and Trk-like family member 2), wild type (mouse) (UniProt Q810C0). In words: crystal structure; Slitrk2 LRR1 and PTPδ Ig1-Fn1 mixed at a molar ratio of 1:1, treated with neuraminidase; sitting drop vapor diffusion, 293 K, 15% PEG4000, 0.1 M sodium acetate, 0.1 M MES (pH 6.0); 3.35 Å.

As to “mouse PTPδ Ig1-Fn1 (residues 28-418), splice variant meA9B+ (from UniProt Q64487) R236E”, in experiment [1], the response (Response unit) stood at 97.

B1: mouse PTPδ Ig1-Fn1 (residues 28-418), splice variant meA9B+, Q64487 Y273A (protein)
chain: ETPPRFTRTPVDQTGVSGGVASFICQATGDPRPKIVWNKKGKKVSNQRFEVIEFDDGSGSVLRIQPLRTPRDEAIYECVASNNVGEISVSTRLTVLREDQIPRGFPTIDMGPQLKVVERTRTATMLCAASGNPDPEITWFKDFLPVDTSNNNGRIKQLRSESIGGTPIRGALQIEQSEESDQGKYECVATNSAGTRYSAPANLYVRELREVRRVPPRFSIPPTNHEIMPGGSVNITCVAVGSPMPAVKWMLGAEDLTPEDDMPIGRNVLELNDVRQSANYTCVAMSTLGVIEAIAQITVKALPKPPGTPVVTESTATSITLTWDSGNPEPVSYYIIQHKPKNSEEPYKEIDGIATTRYSVAGLSPYSDYEFRVVAVNNIGRGPASEPVLTQ
What is called Kd is the concentration at which binding is half-saturated. For B1, the Kd in experiment [2] (PTPδ Ig1-Fn1 injected, parent: 355.5 ± 6.5 nM) was found to be 312 nM. The response (Response unit) in experiment [2] (point at 4 µM PTPδ Ig1-Fn1 (highest concentration), parent: est. 600, read off a …) came out at 500.

B2: mouse PTPδ Ig1-Fn1 (residues 28-418), splice variant meA9B+ (domain or fragment)
chain: ETPPRFTRTPVDQTGVSGGVASFICQATGDPRPKIVWNKKGKKVSNQRFEVIEFDDGSGSVLRIQPLRTPRDEAIYECVASNNVGEISVSTRLTVLREDQIPRGFPTIDMGPQLKVVERTRTATMLCAASGNPDPEITWFKDFLPVDTSNNNGRIKQLRSESIGGTPIRGALQIEQSEESDQGKYECVATNSAGTRYSAPANLYVRELREVRRVPPRFSIPPTNHEIMPGGSVNITCVAVGSPMPYVKWMLGAEDLTPEDDMPIGRNVLELNDVRQSANYTCVAMSTLGVIEAIAQITVKALPKPPGTPVVTESTATSITLTWDSGNPEPVSYYIIQHKPKNSEEPYKEIDGIATTRYSVAGLSPYSDYEFRVVAVNNIGRGPASEPVLTQ
modifications: N-linked glycans
In general, stoichiometry N refers to the number of molecules, sites or subunits per partner or assembly. As for B2, the figures for the Kd (in experiment [3]; with mouse Slitrk2 LRR1 R114A; in experiment [4]) were 356 nM, 257 nM and 580 nM, respectively. Further, in experiment [5], the stoichiometry N turned out to be 1.

B3: mouse PTPδ Ig1-Fn1, splice variant meA-B+ (domain or fragment)
chain: ETPPRFTRTPVDQTGVSGGVASFICQATGDPRPKIVWNKKGKKVSNQRFEVIEFDDGSGSVLRIQPLRTPRDEAIYECVASNNVGEISVSTRLTVLREDQIPRGFPTIDMGPQLKVVERTRTATMLCAASGNPDPEITWFKDFLPVDTSNNNGRIKQLRSGALQIEQSEESDQGKYECVATNSAGTRYSAPANLYVRELREVRRVPPRFSIPPTNHEIMPGGSVNITCVAVGSPMPYVKWMLGAEDLTPEDDMPIGRNVLELNDVRQSANYTCVAMSTLGVIEAIAQITVKALPKPPGTPVVTESTATSITLTWDSGNPEPVSYYIIQHKPKNSEEPYKEIDGIATTRYSVAGLSPYSDYEFRVVAVNNIGRGPASEPVLTQ
As to B3, binding in experiment [3] was put at a Kd of 451 nM.
